The values below come from US9724426B2, “Agents, uses and methods” (AFFINICON APS, priority 2009, dated 2017).

What all share (format): cell-based
Experiment [1] addresses T1, CD163 on CD14+ peripheral blood monocytes (Homo sapiens, UniProt Q86VB7).
T1 construct: endogenous in cells; host or cells: human peripheral blood monocytes, monocyte-derived macrophages, blood dendritic cells
The experiment in a line: Quantitative flow cytometry of monocyte surface CD163 expression with different anti-CD163 clones. As for the experimental part: Freshly drawn peripheral whole blood samples or PBMC (approx. 3×10^6 cells) were stained with isotype-matched control antibody or a relevant antibody for one hour at 4° C. in the dark. When staining whole blood, erythrocytes were lysed for 15 min with 4° C. cold solution of ammonium chloride. When indirect immunofluoresence staining was required, cells were initially incubated with unconjugated primary CD163 antibody for one hour at 4° C., washed three times with D-PBS, pH 7.4, followed by incubation with goat anti-mouse-conjugated Alexa-Fluor® 488 (1:200 dilution; Molecular Probes, Invitrogen, Carlsbad, Calif., USA) for one hour at 4° C. in the dark. The stained cells were washed twice three D-PBS, pH 7.4, re-suspended in 400 μl FACSflow (Becton Dickinson, San Jose, Calif., USA), and kept on ice until analysis. All samples were analyzed using a FACSCalibur flow cytometer and compensated for spectral overlap using FlowJo for Macintosh software version 8.3 (TreeStar, San Carlos, Calif.). For CD163 density quantitation, flow cytometric estimation of antibodies bound/cell (ABCs) was performed using Quantibrite PE beads (Becton Dickinson, San Jose, Calif., USA) as recommended by the manufacturer. After the cells were stained, as detailed, a set of 4 pre-calibrated fluorescently labeled beads was used for standardization before the samples were acquired. The Quantibrite PE beads were run at the same instrument settings as the assay, and the linear regression obtained using the Quantibrite PE beads was used to convert the FL2 linear fluorescence staining of cell population into the number of (CD163) PE molecules bound per cell (ABC).

Experiment [2] deals with T2, CD163 receptor on surface of human macrophages (Homo sapiens, UniProt Q86VB7).
T2 construct: endogenous in cells; host or cells: human peripheral blood monocytes, monocyte-derived macrophages, blood dendritic cells
T2 sequence (Q86VB7 42-1156): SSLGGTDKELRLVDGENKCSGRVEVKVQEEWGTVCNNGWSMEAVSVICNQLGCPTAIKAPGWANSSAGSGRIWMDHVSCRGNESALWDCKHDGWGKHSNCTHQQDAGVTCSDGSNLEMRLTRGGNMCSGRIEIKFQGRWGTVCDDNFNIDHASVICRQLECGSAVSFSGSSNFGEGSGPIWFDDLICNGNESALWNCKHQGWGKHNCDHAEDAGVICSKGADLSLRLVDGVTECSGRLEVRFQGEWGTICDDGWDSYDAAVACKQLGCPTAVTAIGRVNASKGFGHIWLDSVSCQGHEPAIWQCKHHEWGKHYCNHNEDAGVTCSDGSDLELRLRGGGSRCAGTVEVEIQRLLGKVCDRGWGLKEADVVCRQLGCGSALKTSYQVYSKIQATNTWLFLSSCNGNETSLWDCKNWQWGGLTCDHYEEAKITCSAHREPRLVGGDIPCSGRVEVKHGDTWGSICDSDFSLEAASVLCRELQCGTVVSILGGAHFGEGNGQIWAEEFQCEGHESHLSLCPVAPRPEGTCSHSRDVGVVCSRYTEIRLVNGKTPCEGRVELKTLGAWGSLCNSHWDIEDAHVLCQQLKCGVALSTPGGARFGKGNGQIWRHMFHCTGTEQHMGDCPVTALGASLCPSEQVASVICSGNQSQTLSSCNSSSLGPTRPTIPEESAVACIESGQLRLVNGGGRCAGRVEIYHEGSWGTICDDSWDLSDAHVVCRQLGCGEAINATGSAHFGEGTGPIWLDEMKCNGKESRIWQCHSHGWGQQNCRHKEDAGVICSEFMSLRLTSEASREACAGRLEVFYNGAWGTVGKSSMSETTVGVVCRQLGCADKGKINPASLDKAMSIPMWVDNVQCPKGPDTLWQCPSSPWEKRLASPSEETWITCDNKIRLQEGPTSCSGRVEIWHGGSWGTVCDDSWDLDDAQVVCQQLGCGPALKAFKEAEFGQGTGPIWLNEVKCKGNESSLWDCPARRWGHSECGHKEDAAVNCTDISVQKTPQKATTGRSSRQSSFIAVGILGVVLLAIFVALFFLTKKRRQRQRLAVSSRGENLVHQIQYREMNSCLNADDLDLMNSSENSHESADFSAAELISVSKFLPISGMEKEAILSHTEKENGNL
The experiment in a line: Binding and uptake of fluorescently labeled CD163 antibodies in monocyte-derived macrophages. To be noted: 0 min; macrophages stimulated with 200 nM dexamethasone. As for the experimental part:
Monocytes were isolated from PBMC by negative selection using magnetic beads from Dynal (Dynabeads® MyPure™ Monocyte Kit 2; Invitrogen A/S, Taastrup, Denmark) according to instructions provided by the manufacturer. Monocyte preparations were more than 95% (CD14^+) pure determined by flow cytometry. The isolated cells were washed twice with phosphate-buffered saline. Monocyte-derived macrophages (MDMs) were prepared by cell culture of monocytes (approximately 1×10^7 cells) for 4 days in 5% CO2 and 37° C. in RPMI 1640 media (RPMI 1640+25 mM HEPES+I-glutamine) (Invitrogen Corporation, Carlsbad, Calif., USA) with 20% FCS containing 100 ng/ml of M-CSF. MDMs were then detached from the flask by incubation with cell dissociation buffer (Invitrogen A/S, Taastrup, Denmark) for 30 minutes at 40 °C, then flushed, and scraped. […]
MDMs or CHO cells were washed with 4° C. cold D-PBS, pH 7.4, containing 1% BSA in Lab-Tek™ Chamber Slides (Thermo Fisher Scientific, Roskilde, Denmark). […] Fluorescence was visualized using a Zeiss Axiovert 200M microscope (Carl Zeiss GmbH, Jena, Germany) with an ×100 oil-immersion objective. […] Alternatively, immunostained cells were analyzed by confocal immunofluorescence microscopy using a Zeiss LSM-510 confocal microscope (Carl Zeiss GmbH, Jena, Germany). […]

Experiment [3] deals with LPS induction of TNF production in human in vitro matured macrophages. The experiment is described as follows: Dexamethasone treatment of cultivated pro-inflammatory macrophages, soluble TNF by cytometry bead array. The settings on record: without dexamethasone; results not shown. As to the method: Monocytes were resuspended in RMPI 1640 medium (Sigma-Aldrich, Brondby, Denmark) containing 20% fetal calf serum (FCS) supplemented with 100 ng/ml M-CSF (GenScript Corporation, New Jersey, USA) and pencillin/streptomycin (pen/strep) for 7 days. The first 3 days in Tissue Culture Flasks at 37° C. and 5% CO2. The monocytes were then detached from the flask by flushing and scraping. The monocytes were divided into smaller portions and further grown for four days. […] cells per well were grown in 96 well tissue culture plates for TNF CBA use.
Subsequently, the macrophages were activated in RMPI 1640 containing 5% FCS, 1 ug/ml lipopolysaccaride (LPS) (Sigma-Aldrich, Brøondby, Denmark) and 20 ng/ml INF-gamma (Genscript Corporation, New Jersey, USA) for 18 hours making them pro-inflammatory.
The pro-inflammatory macrophages were stimulated with RMPI160, 5% FCS, 1 ug/ml LPS and 20 ng/ml INF-gamma containing either dexamethasone, Ab-dexamethasone or no drug.
To detect the change in soluble TNF-alpha concentration we used the Cytometry Bead Array Kit (BD Biosciences, New Jersey, USA). The media from the in vitro stimulated macrophages (described earlier) grown in 96 well tissue culture plates were analyzed according to the manufacturer's protocol.

“And” between values parts separate entries of the source, which are not always exact repeats. Equal values may be shown once.

T1 sequence (Q86VB7 42-1156): as above

B1: Mac2-158: murine anti-human CD163 mAb binding SRCR domain 1; VH SEQ ID NO:20, VL SEQ ID NO:21; IQ Products (antibody, V domains shown)
VH: DVQLQESGPGLVKPSQSLSLTCTVTGYSITSDYAWNWIRQFPGNKLEWMGYITYSGITNYNPSLKSQISITRDTSKNQFFLQLNSVTTEDTATYYCVSGTYYFDYWGQGTTLTVSS
VL: SVVMTQTPKSLLISIGDRVTITCKASQSVSSDVAWFQQKPGQSPKPLIYYASNRYTGVPDRFTGSGYGTDFTFTISSVQAEDLAVYFCGQDYTSPRTFGGGTKLEIKRA
modifications: Mac2-158 VH sequence; Mac2-158 VL sequence
notes: IQ Products
For the molecule B1, the “density of CD163 receptors per monocyte” value in experiment [1] (citrate stabilized whole blood) was 17,726; in experiment [1] (heparin stabilized whole blood), 18,929. Further, the “fraction of CD14+ monocytes stained positive for CD163” value in experiment [1] (citrate stabilized whole blood) is 83.97%; in experiment [1] (freshly drawn EDTA stabilized whole blood), 84.06% and 87.23%; in experiment [1] (heparin stabilized whole blood), 84.43%. Moreover, the “cell surface staining (immunofluorescence)” value in experiment [2] was “pronounced cell surface staining”. Further, the effect on macrophages result in experiment [3] is on record as “no effect different from buffer”.
